Literature values in US20200069786A1, “COMPOSITION AND PROCESS FOR PREPARING VACCINE” (TREOS BIO ZRT., priority 2018, published 2020).
Read-outs that look alike come from different tables or passages of the source.

B1: SART3 (protein, UniProt Q15020 2-963, looked up)
Spliceosome associated factor …: ATAAETSASEPEAESKAGPKADGEEDEVKAARTRRKVLSRAVAAATYKTMGPAWDQQEEGVSESDGDEYAMASSAESSPGEYEWEYDEEEEKNQLEIERLEEQLSINVYDYNCHVDLIRLLRLEGELTKVRMARQKMSEIFPLTEELWLEWLHDEISMAQDGLDREHVYDLFEKAVKDYICPNIWLEYGQYSVGGIGQKGGLEKVRSVFERALSSVGLHMTKGLALWEAYREFESAIVEAARLEKVHSLFRRQLAIPLYDMEATFAEYEEWSEDPIPESVIQNYNKALQQLEKYKPYEEALLQAEAPRLAEYQAYIDFEMKIGDPARIQLIFERALVENCLVPDLWIRYSQYLDRQLKVKDLVLSVHNRAIRNCPWTVALWSRYLLAMERHGVDHQVISVTFEKALNAGFIQATDYVEIWQAYLDYLRRRVDFKQDSSKELEELRAAFTRALEYLKQEVEERFNESGDPSCVIMQNWARIEARLCNNMQKARELWDSIMTRGNAKYANMWLEYYNLERAHGDTQHCRKALHRAVQCTSDYPEHVCEVLLTMERTEGSLEDWDIAVQKTETRLARVNEQRMKAAEKEAALVQQEEEKAEQRKRARAEKKALKKKKKIRGPEKRGADEDDEKEWGDDEEEQPSKRRRVENSIPAAGETQNVEVAAGPAGKCAAVDVEPPSKQKEKAASLKRDMPKVLHDSSKDSITVFVSNLPYSMQEPDTKLRPLFEACGEVVQIRPIFSNRGDFRGYCYVEFKEEKSALQALEMDRKSVEGRPMFVSPCVDKSKNPDFKVFRYSTSLEKHKLFISGLPFSCTKEELEEICKAHGTVKDLRLVTNRAGKPKGLAYVEYENESQASQAVMKMDGMTIKENIIKVAISNPPQRKVPEKPETRKAPGGPMLLPQTYGARGKGRTQLSLLPRALQRPSAAAPQAENGPAAAPAVAAPAATEAPKMSNADFAKLFLRK
B2: TTK (protein, UniProt P33981 1-857, looked up)
Dual specificity protein …: MESEDLSGRELTIDSIMNKVRDIKNKFKNEDLTDELSLNKISADTTDNSGTVNQIMMMANNPEDWLSLLLKLEKNSVPLSDALLNKLIGRYSQAIEALPPDKYGQNESFARIQVRFAELKAIQEPDDARDYFQMARANCKKFAFVHISFAQFELSQGNVKKSKQLLQKAVERGAVPLEMLEIALRNLNLQKKQLLSEEEKKNLSASTVLTAQESFSGSLGHLQNRNNSCDSRGQTTKARFLYGENMPPQDAEIGYRNSLRQTNKTKQSCPFGRVPVNLLNSPDCDVKTDDSVVPCFMKRQTSRSECRDLVVPGSKPSGNDSCELRNLKSVQNSHFKEPLVSDEKSSELIITDSITLKNKTESSLLAKLEETKEYQEPEVPESNQKQWQSKRKSECINQNPAASSNHWQIPELARKVNTEQKHTTFEQPVFSVSKQSPPISTSKWFDPKSICKTPSSNTLDDYMSCFRTPVVKNDFPPACQLSTPYGQPACFQQQQHQILATPLQNLQVLASSSANECISVKGRIYSILKQIGSGGSSKVFQVLNEKKQIYAIKYVNLEEADNQTLDSYRNEIAYLNKLQQHSDKIIRLYDYEITDQYIYMVMECGNIDLNSWLKKKKSIDPWERKSYWKNMLEAVHTIHQHGIVHSDLKPANFLIVDGMLKLIDFGIANQMQPDTTSVVKDSQVGTVNYMPPEAIKDMSSSRENGKSKSKISPKSDVWSLGCILYYMTYGKTPFQQIINQISKLHAIIDPNHEIEFPDIPEKDLQDVLKCCLKRDPKQRISIPELLAHPYVQIQTHPVNQMAKGTTEEMKYVLGQLVGLNSPNSILKAAKTLYEHYSGGESHNSSSSKTFEKKRGKK

Test system: TSA

Molecule	Expression Rate (ER) % (TSA expression rate in PEDIATRIC) [%]	Expression Rate (ER) % (TSA expression rate in Esophageal) [%]
B1	73	–
B2	–	97
